Data published in IntAct's records for PubMed 11641419.

B1: Prolactin-releasing peptide receptor (Homo sapiens), P49683 (parent)
chain: MASSTTRGPRVSDLFSGLPPAVTTPANQSAEASAGNGSVAGADAPAVTPFQSLQLVHQLKGLIVLLYSVVVVVGLVGNCLLVLVIARVRRLHNVTNFLIGNLALSDVLMCTACVPLTLAYAFEPRGWVFGGGLCHLVFFLQPVTVYVSVFTLTTIAVDRYVVLVHPLRRRISLRLSAYAVLAIWALSAVLALPAAVHTYHVELKPHDVRLCEEFWGSQERQRQLYAWGLLLVTYLLPLLVILLSYVRVSVKLRNRVVPGCVTQSQADWDRARRRRTFCLLVVIVVVFAVCWLPLHVFNLLRDLDPHAIDPYAFGLVQLLCHWLAMSSACYNPFIYAWLHDSFREELRKLLVAWPRKIAPHGQNMTVSVVI

Variants of: B1
Settings: with grip1_human GRIP1, Q9Y3R0
Sequence of grip1_human GRIP1, Q9Y3R0 (Q9Y3R0 whole entry): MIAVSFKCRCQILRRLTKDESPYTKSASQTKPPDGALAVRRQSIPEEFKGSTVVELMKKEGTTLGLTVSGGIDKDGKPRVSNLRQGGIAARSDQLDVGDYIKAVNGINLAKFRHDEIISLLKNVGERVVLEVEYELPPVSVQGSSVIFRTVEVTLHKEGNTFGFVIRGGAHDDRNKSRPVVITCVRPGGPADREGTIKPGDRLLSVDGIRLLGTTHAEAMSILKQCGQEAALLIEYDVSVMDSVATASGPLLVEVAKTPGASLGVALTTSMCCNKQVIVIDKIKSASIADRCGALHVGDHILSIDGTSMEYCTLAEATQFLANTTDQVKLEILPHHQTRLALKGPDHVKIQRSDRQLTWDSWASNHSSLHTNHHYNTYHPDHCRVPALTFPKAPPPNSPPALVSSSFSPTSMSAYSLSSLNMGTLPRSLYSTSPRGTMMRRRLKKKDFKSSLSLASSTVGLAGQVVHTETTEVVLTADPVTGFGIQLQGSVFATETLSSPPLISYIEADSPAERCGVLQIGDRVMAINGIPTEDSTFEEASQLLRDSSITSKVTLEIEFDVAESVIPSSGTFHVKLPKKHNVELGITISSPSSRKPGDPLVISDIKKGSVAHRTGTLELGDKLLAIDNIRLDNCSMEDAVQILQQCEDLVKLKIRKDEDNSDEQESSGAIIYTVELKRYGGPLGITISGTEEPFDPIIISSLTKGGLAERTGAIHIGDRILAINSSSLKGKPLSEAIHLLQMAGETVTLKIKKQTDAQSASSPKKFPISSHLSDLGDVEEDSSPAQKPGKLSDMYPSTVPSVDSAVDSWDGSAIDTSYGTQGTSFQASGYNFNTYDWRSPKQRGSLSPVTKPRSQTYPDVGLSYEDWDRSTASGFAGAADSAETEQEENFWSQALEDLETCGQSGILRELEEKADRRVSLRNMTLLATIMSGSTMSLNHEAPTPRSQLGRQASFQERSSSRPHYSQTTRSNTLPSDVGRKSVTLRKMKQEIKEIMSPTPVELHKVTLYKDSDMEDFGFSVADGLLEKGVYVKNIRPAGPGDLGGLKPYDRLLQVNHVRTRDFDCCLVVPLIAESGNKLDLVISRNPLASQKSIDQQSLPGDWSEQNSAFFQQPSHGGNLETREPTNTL
With MASSTTRGPRVSDLFSGLPPAVTTPANQSAEASAGNGSVAGADAPAVTPFQSLQLVHQLKGLIVLLYSVVVVVGLVGNCLLVLVIARVRRLHNVTNFLIGNLALSDVLMCTACVPLTLAYAFEPRGWVFGGGLCHLVFFLQPVTVYVSVFTLTTIAVDRYVVLVHPLRRRISLRLSAYAVLAIWALSAVLALPAAVHTYHVELKPHDVRLCEEFWGSQERQRQLYAWGLLLVTYLLPLLVILLSYVRVSVKLRNRVVPGCVTQSQADWDRARRRRTFCLLVVIVVVFAVCWLPLHVFNLLRDLDPHAIDPYAFGLVQLLCHWLAMSSACYNPFIYAWLHDSFREELRKLLVAWPRKIAPHGQNMTVAVVI [S367A] the “effect of a mutation on the interaction” value was “disrupting interaction”. With MASSTTRGPRVSDLFSGLPPAVTTPANQSAEASAGNGSVAGADAPAVTPFQSLQLVHQLKGLIVLLYSVVVVVGLVGNCLLVLVIARVRRLHNVTNFLIGNLALSDVLMCTACVPLTLAYAFEPRGWVFGGGLCHLVFFLQPVTVYVSVFTLTTIAVDRYVVLVHPLRRRISLRLSAYAVLAIWALSAVLALPAAVHTYHVELKPHDVRLCEEFWGSQERQRQLYAWGLLLVTYLLPLLVILLSYVRVSVKLRNRVVPGCVTQSQADWDRARRRRTFCLLVVIVVVFAVCWLPLHVFNLLRDLDPHAIDPYAFGLVQLLCHWLAMSSACYNPFIYAWLHDSFREELRKLLVAWPRKIAPHGQNMTVSAVI [V368A] the “effect of a mutation on the interaction” value was “disrupting interaction”. With MASSTTRGPRVSDLFSGLPPAVTTPANQSAEASAGNGSVAGADAPAVTPFQSLQLVHQLKGLIVLLYSVVVVVGLVGNCLLVLVIARVRRLHNVTNFLIGNLALSDVLMCTACVPLTLAYAFEPRGWVFGGGLCHLVFFLQPVTVYVSVFTLTTIAVDRYVVLVHPLRRRISLRLSAYAVLAIWALSAVLALPAAVHTYHVELKPHDVRLCEEFWGSQERQRQLYAWGLLLVTYLLPLLVILLSYVRVSVKLRNRVVPGCVTQSQADWDRARRRRTFCLLVVIVVVFAVCWLPLHVFNLLRDLDPHAIDPYAFGLVQLLCHWLAMSSACYNPFIYAWLHDSFREELRKLLVAWPRKIAPHGQNMTVSVVA [I370A] the “effect of a mutation on the interaction” value was “disrupting interaction”.
